The record followed here is patent EP4745157A1 (Korea Research Institute of Bioscience and Biotechnology, dated 2026).

Numbering of substitutions follows the chain as printed.

Assay [1] concerns the target T1, TM4SF5-Fc antigen protein (UniProt O14894).
T1 sequence (looked up): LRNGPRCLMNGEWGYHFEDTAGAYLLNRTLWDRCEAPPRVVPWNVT
The assay can be described thus: Biacore, TM4SF5-Fc immobilized directly on the chip. For orientation: SPR reads the build-up and loss of mass on a sensor chip optically.

The target of assay [2] is T2, TM4SF5 (antigen of SPR/BIACORE/ELISA, construct not stated) (UniProt O14894).
T2 sequence (looked up): T1 sequence (looked up)
Description: SPR.

Assay [3] concerns the target T2, TM4SF5 (antigen of SPR/BIACORE/ELISA, construct not stated). Description: BIACORE.
For assay [4], the target named is T3, hEC2-Fc-myc antigen (human) (UniProt O14894).
T3 sequence (looked up): T1 sequence (looked up)
Description: Octet (BLI), IgG against hEC2-Fc-myc. In general terms: Biolayer interferometry detects binding as a change in optical thickness at a sensor tip.

For assay [5], the target named is T3, hEC2-Fc-myc antigen (human). The assay can be described thus: ELISA, IgG against hEC2-Fc-myc. In general terms: In an ELISA, binding on a coated surface is turned into a signal by an enzyme label.
The target of assay [6] is T4, TM4SF5 (antigen of SPR/BIACORE/ELISA, construct not stated) (UniProt O14894 112-157, limits assumed).
T4 construct: also called TM4SF5 target
T4 chain (looked up): T1 sequence (looked up)
The assay can be described thus: SPR.

B1: huAb27-9_E01 IgG (antibody, V domains shown)
VH: EVQLVQSGADVKEPGASVKVSCKASGYTFTDYEMHWVRQAPGQGLEWMGAIDPETGGTAYNQKFKGWVTMTADKSISTAYMELSRLRSDDTAVYYCTRPYLGYWGQGTLVTVSS
VL: EIVLTQSPGMLSLSPGERATLSCRSSQSLVHRNGNTYLHWYQQKPGQAPRLLIYKVSNRFSGIPDRFSGSGSGTDFTLTISRLEPEDFAVYYCFQGSHIPLTFGQGTKVEIKR
Take B1: in assay [1], the fold improvement of antigen-binding affinity against parent huAb27-9 was 3 fold.

B2: huAb27-9 scFv-Fc (Fc fusion, part only; not given: linker, domain order, hinge-Fc, not shown: another chain or arm of the molecule; a dimerising Fc or GST; small tags and cut ends)
VH: B1 VH with E1Q, D10E, E13K, W67R, T97A
VL: EIVLTQSPGTLSLSPGERATLSCRSSQSLVHSNGNTYLHWYQQKPGQAPRLLIYKVSNRFSGIPDRFSGSGSGTDFTLTISRLEPEDFAVYYCFQGSHIPLTFGQGTKVEIK
The term Kd denotes a measure of binding affinity in units of concentration. In the case of B2, in assay [2], the Kd stood at 7.23 nM and the fold difference in affinity against Ab27 scFv-Fc amounted to 1.4 fold.

B3: S43 (G2) (antibody, V domains shown, not shown: a dimerising Fc or GST)
VH: B1 VH with E1Q, D10E, E13K, T28R, E54A, T55F, W67R, T97A
VL: B1 VL with M10T, R32S, R113G
In the case of B3, the fold reduction in affinity against S43 in assay [3] was 1.5 fold.

B4: 2-1 IgG (antibody, V domains shown)
VH: B1 VH with E1Q, D10E, E13K, A59F, Y60V, N61V, Q62S, W67R, T97A
VL: B2 VL
In turn, B4 returned a fold improvement of KD relative to huAb27-9 in assay [4] of 12.6 fold. In assay [5], this molecule had a fold improvement of EC50 relative to huAb27-9 of 41.4 fold.

B5: EO1 H(G)L(GG) (antibody, V domains shown, not shown: a dimerising Fc or GST)
VH: B1 VH
VL: B1 VL with R113G
As to B5, the fold improvement in affinity against EO1 in assay [3] came out at 2 fold.

B6: 1-5 IgG (antibody, V domains shown)
VH: B1 VH with E1Q, D10E, E13K, A59F, Y60V, N61K, Q62R, W67R, T97A
VL: B2 VL
notes: IgG; also called T1-5
Take B6: in assay [6], the Kd is 3.94 nM, the “fold improvement of KD against chimeric Ab27” value is roughly 4 fold and the “fold improvement of KD against humanized Ab27-hz9” value is roughly 2.4 fold. This molecule also showed a fold improvement of KD relative to huAb27-9 in assay [4] of 7.7 fold.

B7: huAb27-9 IgG (antibody, V domains shown)
VH: B1 VH with E1Q, D10E, E13K, W67R, T97A
VL: B1 VL with M10T, R32S
notes: IgG1 format; also called Hz#9 IgG; Hz #9 IgG
B7 returned a Kd in assay [6] of 9.46 nM.

B8: S43 IgG (antibody, V domains shown)
VH: B1 VH with E1Q, D10E, E13K, T28R, E54A, T55F, W67R, T97A
VL: B2 VL
notes: IgG1; also called huAb27-9_M74; M74
Consider B8, for which, in assay [6], binding was characterised by a dissociation constant (Kd) of 4.19 nM, the “fold improvement of KD against chimeric Ab27” value is roughly 4 fold and the “fold improvement of KD against humanized Ab27-hz9” value is roughly 2.4 fold.
